The results in this text go back to paper PMC12804970, “Molecular basis of XPF-ERCC1 targeting to SLX4-dependent DNA repair pathways” (Nature Communications, 2025).

The assay addresses T1, His6-XPF (xeroderma pigmentosum complementation group F), wild type (human, UniProt Q92889 1-916).
T1 construct: XPF (ERCC4), human; Always co-expressed with ERCC1; also called ERCC4; XPF^WT; source: Sf9 (small-scale assays: Sf9 or Hi5), baculovirus co-expression with ERCC1; purified as complexes (Ni-NTA or Strep-Tactin, Capto HiRes Q, Superdex 200) or in insect cell lysate; not shown: His6, N-terminal, kept
In words: co-purification (Strep-Tactin, ion exchange, SEC); co-infection of Sf9 with His6-XPF-ERCC1(-SLX4IP) and Twin-Strep-SLX4 fragment viruses; capture by the Twin-Strep tag on SLX4 on Strep-Tactin, 250 mM KCl, 40 mM HEPES-KOH pH 7.9, then Capto HiRes Q and Superdex 200; SDS-PAGE. The following applies: partners not purified.

B1: Twin-Strep-SLX4^330-555 (domain or fragment, human, UniProt Q8IY92 330-555, looked up)
chain: VPQIPECPICGKPFLTLKSRTSHLKQCAVKMEVGPQLLLQAVRLQTAQPEGSSSPPMFSFSDHSRGLKRRGPTSKKEPRKRRKVDEAPSEDLLVAMALSRSEMEPGAAVPALRLESAFSERIRPEAENKSRKKKPPVSPPLLLVQDSETTGRQIEDRVALLLSEEVELSSTPPLPASRILKEGWERAGQCPPPPERKQSFLWEGSALTGAWAMEDFYTARLVPPLV
notes: from clone HsCD00821809 (DNASU) in vector 438-Sn; source: Sf9 (small-scale assays: Sf9 or Hi5), baculovirus co-infection with His6-XPF-ERCC1(-SLX4IP); purified as complexes (Strep-Tactin, Capto HiRes Q, Superdex 200) or in insect cell lysate; not shown: twin-Strep, N-terminal, kept
Consider B1, for which the binding result is “binds”.
